Test results published in the supplement of paper PMC7877785.
± gives the uncertainty stated by the source.

Test: self-splicing fitness, log relative to wild type (ln ratio); higher = more splicing; Tetrahymena group I intron in knt gene, E. coli kanamycin selection, DiMSum; sequences stand for … in CUCUCU…GGAGGGAAAAGUUAUCAGGCAUGCACCUGGUAGCUAGUCUUUAAACCAAUAGAUUGCAUCGGUUUAAAAGGCAAGACCGUCAAAUUGCGGGAAAGGGGUCAACAGCCGUUCAGUACCAAGUCUCAGGGGAAACUUUGAGAUGGCCUUGCAAAGGGUAUGGUAAUAAGCUGACGGACAUGGUCCUAACCACGCAGCCAAGUCCUAAGUCAACAGAUCUUCUGUUGAUAUGGAUGCAGUUCACAGACUAAAUGUCGGUCGGGGAAGAUGUAUUCUUCUCAUAAGAUAUAGUCGGACCUCUCCUUAAUGGGAGCUAGCGGAUGAAGUGAUGCAACACUGGAGCCGCUGGGAACUAAUUUGUAUGCGAAAGUAUAUUGAUUAGUUUUGGAGUACUCGUGGUCG
Method in brief: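 The eight P1ex-region nucleotides of an intron in the knt kanamycin-resistance gene on pET-22b(+) were all randomised and the library put into E. coli BL21(DE3). Six replicate transformations were grown overnight at 37°C or 30°C on LB agar with or without 25 μg/mL kanamycin, together with 100 μg/mL carbenicillin, 50 μM IPTG and 0.2% rhamnose. Colonies were pooled and amplicon-sequenced on an Illumina HiSeq 2500. Fitness from DiMSum is the error-weighted combination of wild-type-normalised replicate fold changes, kanamycin over none.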

Sequence	self-splicing fitness (ln) (30 °C)	self-splicing fitness (ln) (37 °C)
CCCCAGCAAUAUUACGGAUG	-1.96 ± 0.064	-1.08 ± 0.067
CCCCAGCAAUAUUACGGCGC	-3.41 ± 0.17	-2.98 ± 0.24
CCCCAGCAAUAUUACGGCUC	-3.43 ± 0.18	-2.75 ± 0.33
CCCCAGCAAUAUUACGGGAA	-2.29 ± 0.096	-1.64 ± 0.088
CCCCAGCAAUAUUACGGGAU	-3.28 ± 0.12	-2.48 ± 0.14
CCCCAGCAAUAUUACGUAGG	-3.78 ± 0.12	-2.68 ± 0.15
CCCCAGCAAUAUUACGUGAC	-2.7 ± 0.11	-3.24 ± 0.21
CCCCAGCAAUAUUACGUGAU	-3.64 ± 0.11	-2.96 ± 0.18
CCCCAGCAAUAUUACGUGGU	-2.64 ± 0.1	-2.98 ± 0.2
CCCGAGCAAUAUUACGACCC	–	-0.219 ± 0.47
CCCGAGCAAUAUUACGAGAA	-3.69 ± 0.43	-2.1 ± 0.34
CCCGAGCAAUAUUACGAGCU	-3.75 ± 0.17	-2.69 ± 0.21
CCCGAGCAAUAUUACGAUCU	-3.09 ± 0.19	-2.68 ± 0.23
CCCGAGCAAUAUUACGCACA	-2.87 ± 0.27	-1.68 ± 0.32
CCCGAGCAAUAUUACGCCAU	-3.53 ± 0.35	-2.44 ± 0.33
CCCGAGCAAUAUUACGCCGU	-3.61 ± 0.32	-2.69 ± 0.32
CCCGAGCAAUAUUACGCGAA	–	-3.31 ± 0.21
CCCGAGCAAUAUUACGCGAG	-5.08 ± 0.41	-2.46 ± 0.18
CCCGAGCAAUAUUACGCGGG	-3.54 ± 0.17	-3.45 ± 0.3
CCCGAGCAAUAUUACGGAGA	-3.28 ± 0.14	-1.36 ± 0.11
CCCGAGCAAUAUUACGGCGU	-2.83 ± 0.13	-1.71 ± 0.13
CCCGAGCAAUAUUACGGGGA	-3.49 ± 0.21	-2.14 ± 0.11
CCCGAGCAAUAUUACGGGUG	-3.42 ± 0.18	-1.7 ± 0.12
CCCGAGCAAUAUUACGGUUU	-3.14 ± 0.11	-1.96 ± 0.12
CCCGAGCAAUAUUACGUAAA	-3.27 ± 0.15	-2.94 ± 0.2

Sequence	self-splicing fitness (ln) (30 °C)	self-splicing fitness (ln) (37 °C)
CCCGAGCAAUAUUACGUAGA	-3.94 ± 0.3	-2.92 ± 0.24
CCCGAGCAAUAUUACGUGCU	-3.55 ± 0.21	-1.32 ± 0.16
CCCGAGCAAUAUUACGUGGC	–	-3.58 ± 0.25
CCCGAGCAAUAUUACGUGGG	-3.97 ± 0.19	-2.79 ± 0.19
CCCUAGCAAUAUUACGAAGA	-2.34 ± 0.21	-2.67 ± 0.26
CCCUAGCAAUAUUACGAGAA	-2.85 ± 0.45	-2.67 ± 0.44
CCCUAGCAAUAUUACGAGAC	-3.85 ± 0.22	-2.69 ± 0.34
CCCUAGCAAUAUUACGAGCA	-2.64 ± 0.21	-3.08 ± 0.18
CCCUAGCAAUAUUACGCACA	-2.5 ± 0.14	-1.97 ± 0.15
CCCUAGCAAUAUUACGCCCC	-3.88 ± 0.37	-3.05 ± 0.47
CCCUAGCAAUAUUACGCCCG	-3.81 ± 0.37	-2.12 ± 0.37
CCCUAGCAAUAUUACGCGGA	-1.29 ± 0.12	-0.827 ± 0.1
CCCUAGCAAUAUUACGCUCU	-4.04 ± 0.28	-1.45 ± 0.2
CCCUAGCAAUAUUACGGAAC	-4.39 ± 0.43	-2.85 ± 0.4
CCCUAGCAAUAUUACGGAGC	-3.31 ± 0.21	-2.22 ± 0.23
CCCUAGCAAUAUUACGGCAC	-3.42 ± 0.21	-1.5 ± 0.2
CCCUAGCAAUAUUACGGCCG	-2.29 ± 0.36	-1.62 ± 0.34
CCCUAGCAAUAUUACGGCGU	-2.1 ± 0.15	-2.35 ± 0.17
CCCUAGCAAUAUUACGGGCA	-2.16 ± 0.22	-1.55 ± 0.2
CCCUAGCAAUAUUACGGGUA	-2.41 ± 0.14	-3.01 ± 0.19
CCCUAGCAAUAUUACGGGUU	-4.16 ± 0.17	-2.39 ± 0.15
CCCUAGCAAUAUUACGUAGA	-4.06 ± 0.26	-3.05 ± 0.26
CCGAAGCAAUAUUACGAAAU	-4.57 ± 0.29	-1.9 ± 0.2
CCGAAGCAAUAUUACGAAGA	-3.27 ± 0.39	–
CCGAAGCAAUAUUACGAAGC	–	-1.59 ± 0.24

Sequence	self-splicing fitness (ln) (30 °C)	self-splicing fitness (ln) (37 °C)
CCGAAGCAAUAUUACGACGG	-3.76 ± 0.27	-3.11 ± 0.29
CCGAAGCAAUAUUACGACUU	-2.97 ± 0.22	-3.91 ± 0.39
CCGAAGCAAUAUUACGAUCA	-2.35 ± 0.13	-0.736 ± 0.14
CCGAAGCAAUAUUACGAUUA	-2.53 ± 0.14	-2.31 ± 0.2
CCGAAGCAAUAUUACGCAGC	-3.49 ± 0.23	-2.36 ± 0.37
CCGAAGCAAUAUUACGCCAG	-1.32 ± 0.11	-0.531 ± 0.13
CCGAAGCAAUAUUACGCGCA	-2.85 ± 0.28	-1.95 ± 0.21
CCGAAGCAAUAUUACGCGGA	-3.61 ± 0.43	-1.78 ± 0.19
CCGAAGCAAUAUUACGCGGU	-3.64 ± 0.22	-2.11 ± 0.2
CCGAAGCAAUAUUACGGCCU	-3.94 ± 0.36	-2.02 ± 0.33
CCGAAGCAAUAUUACGGGGG	-4.9 ± 0.46	-2.26 ± 0.33
CCGAAGCAAUAUUACGUAUU	-4.74 ± 0.29	-3.35 ± 0.2
CCGAAGCAAUAUUACGUGCA	-3.4 ± 0.3	–
CCGAAGCAAUAUUACGUGCU	-4 ± 0.24	-2.88 ± 0.28
CCGAAGCAAUAUUACGUGGC	-3.27 ± 0.19	-2.61 ± 0.34
CCGAAGCAAUAUUACGUUAA	–	-0.989 ± 0.23
CCGAAGCAAUAUUACGUUCA	-2.76 ± 0.16	-0.988 ± 0.23
CCGCAGCAAUAUUACGAAGU	-3.34 ± 0.31	-2.5 ± 0.33
CCGCAGCAAUAUUACGACGU	-3.96 ± 0.21	-2.38 ± 0.22
CCGCAGCAAUAUUACGAGUA	-3.31 ± 0.24	-2.82 ± 0.28
CCGCAGCAAUAUUACGAUUG	-0.997 ± 0.085	-0.816 ± 0.09
CCGCAGCAAUAUUACGCAAA	-3.29 ± 0.21	-2.15 ± 0.22
CCGCAGCAAUAUUACGCAGU	-2.96 ± 0.18	-1.48 ± 0.17
CCGCAGCAAUAUUACGCAUA	-3.34 ± 0.19	-2.31 ± 0.17
CCGCAGCAAUAUUACGCCCU	-3.34 ± 0.47	0.196 ± 0.3

Sequence	self-splicing fitness (ln) (30 °C)	self-splicing fitness (ln) (37 °C)
CCGCAGCAAUAUUACGCCGU	-3.34 ± 0.27	-2.26 ± 0.22
CCGCAGCAAUAUUACGGCAA	-2.74 ± 0.24	-2.53 ± 0.22
CCGCAGCAAUAUUACGGCGA	-1.15 ± 0.084	-0.544 ± 0.085
CCGCAGCAAUAUUACGGCGC	–	-0.961 ± 0.22
CCGCAGCAAUAUUACGGUCA	-3.47 ± 0.29	-2.46 ± 0.3
CCGCAGCAAUAUUACGUACU	-4.17 ± 0.33	-3.33 ± 0.4
CCGCAGCAAUAUUACGUCCU	-3.12 ± 0.18	-1.39 ± 0.17
CCGCAGCAAUAUUACGUCUU	-3.69 ± 0.37	-3.07 ± 0.24
CCGCAGCAAUAUUACGUUAC	-3.36 ± 0.14	-2.29 ± 0.14
CCGGAGCAAUAUUACGAAAC	-1.5 ± 0.23	-0.933 ± 0.2
CCGGAGCAAUAUUACGAAGG	-2.63 ± 0.14	-2.28 ± 0.22
CCGGAGCAAUAUUACGAGCG	-0.715 ± 0.082	0.256 ± 0.12
CCGGAGCAAUAUUACGAGGA	–	-1.96 ± 0.24
CCGGAGCAAUAUUACGAGGU	-3.56 ± 0.46	-2.6 ± 0.31
CCGGAGCAAUAUUACGAUCC	-2.16 ± 0.49	–
CCGGAGCAAUAUUACGCCCG	-1.86 ± 0.41	–
CCGGAGCAAUAUUACGCGUA	-3.18 ± 0.3	-1.59 ± 0.2
CCGGAGCAAUAUUACGGCGA	-3.92 ± 0.33	-2.42 ± 0.48
CCGGAGCAAUAUUACGUCGG	-3.63 ± 0.21	-2.82 ± 0.3
CCGGAGCAAUAUUACGUGGC	-3.77 ± 0.39	–
CCGGAGCAAUAUUACGUUAU	-2.97 ± 0.31	-2.01 ± 0.23
CCGUAGCAAUAUUACGACAA	-3.54 ± 0.27	-3.19 ± 0.33
CCGUAGCAAUAUUACGAGGG	-3.25 ± 0.18	-0.352 ± 0.17
CCGUAGCAAUAUUACGAUCG	0.0338 ± 0.098	0.353 ± 0.12
